Target: T1, HGREM1-His (ACRO) (human, UniProt O60565 25-184)
T1 construct: Lys25-Asp184 of NP_037504 with C-terminal polyhistidine tag (ACRO GR1-H52H3); they are put here; also called hGREM1 (ACRO); human gremlin (ACRO)
T1 sequence: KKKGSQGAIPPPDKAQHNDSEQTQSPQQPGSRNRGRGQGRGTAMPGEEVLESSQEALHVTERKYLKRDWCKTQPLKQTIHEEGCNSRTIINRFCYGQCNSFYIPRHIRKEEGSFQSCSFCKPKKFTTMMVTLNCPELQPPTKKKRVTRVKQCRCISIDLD
Assay: blocking ELISA, Human Gremlin-1 binding to BMP2; column OD450
Protocol: In addition, the ability of serial dilutions of antibodies provided herein to block Gremlin binding to human BMP2/4/7 was also examined via ELISA. Plates were coated with recombinant human BMP2/4/7 (0.5 μg/ml) overnight and then serial dilutions of antibodies were incubated with 1 μg/ml of human Gremlin-his modified for 1 h at RT before this complex was added to coated plates and allowed to incubate for an additional hour at RT. The plates were then washed and added with anti-his HRP (GenScript). Plates were then developed with a TMB solution and stopped by adding stop solution. The plates were read on a plate reader at 450 nm. […] The chimeric anti-gremlin 1 antibodies (69H5-chi) and chimeric anti-gremlin 1 antibodies (22F1-chi) also can inhibit the binding of gremlin to BMP2 and BMP4 (see, FIG. 3E and FIG. 3F). The chimeric anti-gremlin 1 antibodies (56C11-chi) can inhibit the binding of gremlin to BMP2 (see, FIG. 3E).

IC50: 0.604 mg/L
B1: 36F5 (antibody, V domains shown)
VH: QVQLQQSGAELARPGASVKLSCKASGYSFTSSGIGWVKQRSGQGLEWIGEIYPRSGNTYNNEKFKGKATLTADKSSSTVYMELRSLTSEDSAVYFCVREAYSHHYYAMDYWGQGTSVTVFS
VL: DVLMTQTPLSLPVSLGGQASISCRSSQSLLHSNGNTYLEWYLQKPGQSPKLLIYKVSNRFSGVPDRLSGSGSGTDFTLKISRVEAEDLGVYYCFQGSHVPFTFGSGTKLEIN
notes: mouse hybridoma antibody; also called hybridoma 36F5

— patent US20240294622A1 (SUZHOU TRANSCENTA THERAPEUTICS, published 2024)
